From US9745384B2, “Peptides useful for modulating histone demethylase function” (The Brigham and Women's Hospital, Inc., priority 2012, dated 2017)
Values belong to the molecule of their own block, whether it stands above or below them. Ends that are not written are not given here.

Legend:
[1] = tested on: CCND1 and CCNE1 expression; assay: CCND1 and CCNE1 expression in breast cancer cells; assay type: cell-based; conditions: overexpression in cells (FIG. 25C)
Description: We first established stable MDA-MB-231 cell lines that express similar levels of the mutant or the wild-type full-length NPAC from cDNAs introduced with silent mutations and resistant to NPAC shRNA (data not shown). […] Thus, mutation of the LSD2-interacting residues F218, L219 and L291 of NPAC can disrupt LSD2 and NPAC functions in vivo.
We next examined if it is possible to use a small molecule to manipulate the interaction between NPAC and LSD2, thus affecting target gene expression. We have shown that a short mutant NPAC peptide (residues 214-225) can interact with LSD2 with high affinity, however, lost its cofactor activity. NPAC214-225.F217A is expected to be able to competitive inhibit the interaction between endogenous NPAC and LSD2, without stimulating LSD2 demethylase activity (FIG. 25A, right). […] Thus, unable to stimulate the histone demethylase activity of endogenous LSD2, this mutant peptide is a potent inhibitor of LSD2 function by competitively inhibiting LSD2 binding by endogenous NPAC.

[2] = tested on: nucleosomes purified from HeLa; assay: Nucleosome pulldown by GST-NPAC proteins; assay type: binding
Description: Nucleosomes were purified from HeLa as previously described (Umlauf et al., 2004). To examine nucleosome binding selectivity of NPAC, 5 μg GST fusion protein bound to glutathione agarose were incubated with 20 μg nucleosomes overnight at 4° C. in nucleosome binding buffer (50 mM NaPO4 pH 7.4, 200 mM NaCl, 0.5% NP-40, 5% glycerol, 10 μM ZnSO4, 1 mM MgCl2, 1 mM DTT, 0.1 mM PMSF). After washing 4 times with the same buffer at 4° C., the beads were boiled in 1×SDS sample loading buffer and elute was resolved by 15% SDS-PAGE for immunoblot analysis or coomassie staining.
For free-DNA competition assays, human genomic DNA was purified from HeLa cells and fragmented to an average size around 300 bp by sonication. Equal amounts of GST-NPAC.d5 bound to glutathione beads were pre-incubated with 0, 5, 10, 25 μg genomic DNA fragments in nucleosome binding buffer for 30 minutes at room temperature, and equal amounts of nucleosomes were added and incubated overnight at 4° C. After extensive washing, GST-NPAC.d5 and bound nucleosomes were eluted by boiling in 1×SDS sample loading buffer, resolved by SDS-PAGE and stained with coomassie blue.

His-LSD2 [3] = biological target: T1, His-LSD2 (Homo sapiens, UniProt Q8NB78); assay: Nucleosome demethylation assay (NPAC cofactor activity for LSD2, immunoblot); assay type: biochemical; conditions: threshold dosage of His-LSD2; nucleosomes purified from HeLa
T1 construct: typically 0.5 μg full-length His-LSD2; made in house; host or cells: Sf9 insect cells
T1 sequence (Q8NB78 1-822): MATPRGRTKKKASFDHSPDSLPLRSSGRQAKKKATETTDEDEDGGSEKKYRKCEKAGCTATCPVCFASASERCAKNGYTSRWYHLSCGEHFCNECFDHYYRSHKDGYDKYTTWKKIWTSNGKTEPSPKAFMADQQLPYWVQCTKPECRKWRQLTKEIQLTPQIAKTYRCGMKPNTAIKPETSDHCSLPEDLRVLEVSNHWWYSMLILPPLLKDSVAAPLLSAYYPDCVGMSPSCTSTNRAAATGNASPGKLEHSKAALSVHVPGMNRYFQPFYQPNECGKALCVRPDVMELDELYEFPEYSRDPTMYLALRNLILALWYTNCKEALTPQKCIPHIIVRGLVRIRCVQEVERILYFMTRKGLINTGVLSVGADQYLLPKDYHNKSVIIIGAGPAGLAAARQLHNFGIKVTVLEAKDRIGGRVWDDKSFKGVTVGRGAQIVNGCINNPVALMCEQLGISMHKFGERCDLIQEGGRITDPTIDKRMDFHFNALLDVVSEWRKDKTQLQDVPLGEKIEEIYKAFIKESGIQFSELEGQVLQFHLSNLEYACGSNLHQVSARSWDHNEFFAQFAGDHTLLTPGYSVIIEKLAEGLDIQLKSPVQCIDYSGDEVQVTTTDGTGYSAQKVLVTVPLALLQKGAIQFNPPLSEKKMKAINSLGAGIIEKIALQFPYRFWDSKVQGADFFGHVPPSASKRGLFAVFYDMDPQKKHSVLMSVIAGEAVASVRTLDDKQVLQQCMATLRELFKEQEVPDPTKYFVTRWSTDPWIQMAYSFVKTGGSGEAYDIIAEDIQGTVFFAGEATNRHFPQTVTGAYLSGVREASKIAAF
Description: For nucleosome demethylation assays, typically 0.5 μg full-length His-LSD2, 1 μg NPAC protein or peptides, and 2 μg nucleosomes purified from HeLa were used, and demethylation efficiency was analyzed by SDS-PAGE electrophoresis and immunoblot using methylation specific anti-histone H3 antibodies as previously described (Shi et al. 2004).

His-LSD2 [4] = biological target: T1, His-LSD2; assay: GST-pulldown of His-LSD2 by GST-NPAC proteins; assay type: binding; conditions: coomassie blue staining
Description: […] GST or GST-NPAC fusion proteins were bound to glutathione agarose, and were incubated with 2 μg full-length His-LSD2 overnight in 50 mM NaPO4 pH 7.4, 150 mM NaCl, 0.5% NP-40, 5% glycerol, 10 μM ZnSO4, 1 mM MgCl2, 1 mM DTT, 0.1 mM PMSF at 4° C. After washed 4 times with same buffer at 4° C., glutathione agarose beads were boiled in 1×SDS sample loading buffer. Elute was resolved on a 15% SDS-PAGE gel and stained by coomassie blue.

double strand DNA = assay: DNA binding assay (GST-pulldown)
Description: 5-10 μg GST and GST-tagged NPAC truncation proteins were incubated with 1 μg linearized plasmid DNA overnight at 4° C. in 50 mM Tris pH 7.4, 200 mM NaCl, 0.2% NP-40, 1 mM MgCl2, 1 mM EDTA, 1 mM DTT, 0.02 mM ZnSO4. After extensive washing with the same buffer, bound DNA was eluted by incubating with 100 μl 10 mM Tris pH 8.0, 1% SDS for 15 minutes at 65° C. Pulldown DNA was purified using Qiagen PCR purification kit, resolved by agarose gel electrophoresis and stained with Ethidium Bromide.

- LSD2 binding (GST-pulldown) (His-LSD2 [4]): sufficient for LSD2 interaction
B2: NP.d8: NPAC residues 188-252 (protein)
chain: TVKGMMAGPMAAFKWQPTASEPVKDADPHFHHFLLSQTEKPAVCYQAITKKLKICEEETGSTSIQ
modifications: also: fused to dimerising Fc or GST
- Cofactor activity: stimulation of LSD2 demethylation of nucleosomal H3K4me2 (His-LSD2 [3]): significantly enhances LSD2 histone demethylase activity on nucleosomal substrates

- Nucleosome binding (GST-pulldown) [2]: can readily do so
B3: NPAC.d5: Example 2 GST-NPAC truncation, residues 1-120 (protein, UniProt Q49A26 1-120, looked up, fragment)
chain: MAAVSLRLGDLVWGKLGRYPPWPGKIVNPPKDLKKPRGKKCFFVKFFGTEDHAWIKVEQLKPYHAHKEEMIKINKGKRFQQAVDAVEEFLRRAKGKDQTSSHNSSDDKNRRNSSEERSRP
modifications: GST tag
- DNA binding (GST-pulldown) (double strand DNA): pulls down DNA nearly as efficiently as NPAC.d1
- Nucleosome binding in the presence of increasing free double strand DNA ([2]; 0, 5, 10, 25 μg genomic DNA fragments): compromised the nucleosome binding ability of NPAC.d5 in a dose dependent manner

- DNA binding (GST-pulldown) (double strand DNA): unable to interact with DNA
- Nucleosome binding (GST-pulldown) [2]: failed to interact with nucleosomes
B4: NPAC.d6: Example 2 GST-NPAC truncation, residues 1-81 (protein, UniProt Q49A26 1-81, looked up, fragment)
chain: MAAVSLRLGDLVWGKLGRYPPWPGKIVNPPKDLKKPRGKKCFFVKFFGTEDHAWIKVEQLKPYHAHKEEMIKINKGKRFQQ
modifications: GST tag

- Nucleosome binding (GST-pulldown) [2]: strong binding to nucleosomes
B6: NPAC.d2: Example 2 GST-NPAC truncation, residues 1-250 (protein, UniProt Q49A26 1-250, looked up, fragment)
chain: MAAVSLRLGDLVWGKLGRYPPWPGKIVNPPKDLKKPRGKKCFFVKFFGTEDHAWIKVEQLKPYHAHKEEMIKINKGKRFQQAVDAVEEFLRRAKGKDQTSSHNSSDDKNRRNSSEERSRPNSGDEKRKLSLSEGKVKKNMGEGKKRVSSGSSERGSKSPLKRAQEQSPRKRGRPPKDEKDLTIPESSTVKGMMAGPMAAFKWQPTASEPVKDADPHFHHFLLSQTEKPAVCYQAITKKLKICEEETGSTS
modifications: GST tag

More lines, now with the values behind:

Molecule: GFP-NPAC214-225.F217A: GFP fusion of mutant NPAC peptide (residues 214-225) F217A, overexpressed in cells ({GFP}-DPHAHHFLLSQT; UniProt Q49A26 214-225, looked up, variant F217A)
- CCND1 and CCNE1 expression on ectopic expression of the peptide [1]: consistently down regulates CCND1 and CCNE1 expression
- CCND1 and CCNE1 expression on ectopic expression of the peptide ([1]; listed as NPAC.214-215.F217A peptide): down regulates CCND1 and CCNE1 expression

B1: NPAC.d4: Example 2 GST-NPAC truncation, residue 181-553 (protein, UniProt Q49A26 181-553, looked up, fragment)
chain: LTIPESSTVKGMMAGPMAAFKWQPTASEPVKDADPHFHHFLLSQTEKPAVCYQAITKKLKICEEETGSTSIQAADSTAVNGSITPTDKKIGFLGLGLMGSGIVSNLLKMGHTVTVWNRTAEKCDLFIQEGARLGRTPAEVVSTCDITFACVSDPKAAKDLVLGPSGVLQGIRPGKCYVDMSTVDADTVTELAQVIVSRGGRFLEAPVSGNQQLSNDGMLVILAAGDRGLYEDCSSCFQAMGKTSFFLGEVGNAAKMMLIVNMVQGSFMATIAEGLTLAQVTGQSQQTLLDILNQGQLASIFLDQKCQNILQGNFKPDFYLKYIQKDLRLAIALGDAVNHPTPMAAAANEVYKRAKALDQSDNDMSAVYRAYIH
modifications: GST tag
- Nucleosome binding (GST-pulldown) [2]: abolish the ability to interact with nucleosomes

B5: NPAC.d3: Example 2 GST-NPAC truncation, residue 81-553 (protein, UniProt Q49A26 81-553, looked up, fragment)
chain: QAVDAVEEFLRRAKGKDQTSSHNSSDDKNRRNSSEERSRPNSGDEKRKLSLSEGKVKKNMGEGKKRVSSGSSERGSKSPLKRAQEQSPRKRGRPPKDEKDLTIPESSTVKGMMAGPMAAFKWQPTASEPVKDADPHFHHFLLSQTEKPAVCYQAITKKLKICEEETGSTSIQAADSTAVNGSITPTDKKIGFLGLGLMGSGIVSNLLKMGHTVTVWNRTAEKCDLFIQEGARLGRTPAEVVSTCDITFACVSDPKAAKDLVLGPSGVLQGIRPGKCYVDMSTVDADTVTELAQVIVSRGGRFLEAPVSGNQQLSNDGMLVILAAGDRGLYEDCSSCFQAMGKTSFFLGEVGNAAKMMLIVNMVQGSFMATIAEGLTLAQVTGQSQQTLLDILNQGQLASIFLDQKCQNILQGNFKPDFYLKYIQKDLRLAIALGDAVNHPTPMAAAANEVYKRAKALDQSDNDMSAVYRAYIH
modifications: GST tag
- Nucleosome binding (GST-pulldown) [2]: abolish the ability to interact with nucleosomes
